Here are results for one molecule from publication PMC12888920, “MMP-9 regulates disulphide isomerase activity of TGM2 to enhance fusion glycoprotein-mediated syncytium formation of respiratory syncytial virus” (Protein & Cell, 2025).

The target in one assay is RSV F protein (DS-Cav1). Description: Biolayer interferometry, MMP-9 binding to RSV F protein (DS-Cav1). Further details: species or system Respiratory syncytial virus. As to conditions: BLI, DS-Cav1 immobilized; read-out: dissociation constant (KD), MMP-9 to RSV F. The procedure:
Figure 4. MMP-9 interacts with RSV F protein. (A) MMP-9–F protein interaction analysis. HEK293T cells co-transfected with MMP-9 and RSV F plasmids (48 h) were subjected to co-immunoprecipitation (Co-IP) using anti-F, anti-MMP-9, or IgG control antibodies, followed by immunoblotting with indicated probes. Blots represent three independent experiments. (B) Binding affinity quantification. Biolayer interferometry (BLI) assays using ForteBio Octet measured DS-Cav1 (RSV F prefusion conformation) and MMP-9 interactions. The results represent three biological replicates. (C) Subcellular co-localization. Confocal microscopy of HEp-2 cells transfected with MMP-9 (24 h) ± RSV A2 infection (MOI = 1, 72 hpi). Nuclei (DAPI), MMP-9, and RSV F signals are shown. Scale bar: 20 µm. Images represent three biological replicates. (D) No effect on F protein proteolytic processing. Western blot of RSV F cleavage status in HEK293T cells co-expressing MMP-9 (100–500 ng) and RSV F (500 ng) for 48 h. β-Actin served as loading control. Blots represent three independent experiments. […] They were left out and are not reliably readable. […]
(§1) 271 TGM2) were quantified using a Sartorius Octet R4 system. […]
(§2) 275 equilibration. MMP-9 (MCE) binding was assessed across two concentration ranges: […]
(§3) 281 (Sartorius) at 20 µg/mL. TGM2 binding was evaluated across 0 –100 µM (7 […]

In the next assay the target is T1, TGM2 (Homo sapiens, UniProt P21980).
T1 construct: His tag (inferred from capture on anti-penta-HIS biosensors); purchased MCE (MedChemExpress)
T1 sequence (P21980 1-687): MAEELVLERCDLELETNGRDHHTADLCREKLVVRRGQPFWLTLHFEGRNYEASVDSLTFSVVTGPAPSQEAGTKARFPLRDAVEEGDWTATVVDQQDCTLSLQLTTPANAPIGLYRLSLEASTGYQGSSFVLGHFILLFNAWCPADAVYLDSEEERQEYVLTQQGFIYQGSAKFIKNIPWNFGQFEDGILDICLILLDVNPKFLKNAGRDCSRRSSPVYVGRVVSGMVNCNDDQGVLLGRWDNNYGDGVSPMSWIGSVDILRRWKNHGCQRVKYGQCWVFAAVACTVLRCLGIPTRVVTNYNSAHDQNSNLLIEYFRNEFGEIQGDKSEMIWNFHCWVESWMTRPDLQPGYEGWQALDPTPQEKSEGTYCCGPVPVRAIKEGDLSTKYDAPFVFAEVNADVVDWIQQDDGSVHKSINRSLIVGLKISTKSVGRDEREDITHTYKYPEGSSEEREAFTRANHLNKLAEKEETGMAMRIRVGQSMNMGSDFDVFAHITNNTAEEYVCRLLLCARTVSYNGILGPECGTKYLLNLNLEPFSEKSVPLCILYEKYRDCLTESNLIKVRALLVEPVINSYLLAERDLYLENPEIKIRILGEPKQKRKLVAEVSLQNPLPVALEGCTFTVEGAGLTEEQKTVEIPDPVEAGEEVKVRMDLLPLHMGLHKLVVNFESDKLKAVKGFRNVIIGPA
Description: Biolayer interferometry, MMP-9 binding to TGM2. As to conditions: BLI, purified human proteins, TGM2 immobilized; read-out: dissociation constant (KD), MMP-9 to TGM2. The procedure:
Figure 6. MMP-9 cleaves TGM2 to potentiate RSV infection. (A) MMP-9–TGM2 interaction. […] Blots represent three independent experiments. (D) Infection-enhanced cleavage. MMP-9-dependent TGM2 proteolysis in HEp-2 cells transfected with HA-TGM2 and siMMP-9, followed by RSV A2 infection (MOI = 1, 72 hpi). TGM2 fragment band intensity was quantified by ImageJ software (gray values). Blots represent three independent experiments. (E) Enzymatic validation. MMP-9 proteolytic activity was measured using fluorogenic substrate Mca-PLGL-Dpa-AR-NH2. The results represent three biological replicates. (F) In vitro cleavage assay. Recombinant TGM2 (2 µg) was incubated with APMA-activated MMP-9 (0.2 µg) for 18 h (37°C, pH 7.5). Cleavage products resolved by SDS-PAGE (10%). Arrows indicate proteolytic fragments. The results represent three biological replicates. (G) Functional rescue. Viral titers (FFA) in HEp-2 cells overexpressing MMP-9, TGM2, or cleavage-resistant mutant (TGM2-P375A) post RSV infection (MOI = 1, 72 hpi). mean ± SD, n = 3. (H) Syncytium rescue. Syncytia area quantification in MMP-9/TGM2-modulated cells (ImageJ software). mean ± SD, n = 3. […]
as §1, §2, §3

B1: MMP-9: recombinant matrix metalloproteinase 9 protein used as analyte in BLI (protein)
chain: APRQRQSTLVLFPGDLRTNLTDRQLAEEYLYRYGYTRVAEMRGESKSLGPALLLLQKQLSLPETGELDSATLKAMRTPRCGVPDLGRFQTFEGDLKWHHHNITYWIQNYSEDLPRAVIDDAFARAFALWSAVTPLTFTRVYSRDADIVIQFGVAEHGDGYPFDGKDGLLAHAFPPGPGIQGDAHFDDDELWSLGKGVVVPTRFGNADGAACHFPFIFEGRSYSACTTDGRSDGLPWCSTTANYDTDDRFGFCPSERLYTQDGNADGKPCQFPFIFQGQSYSACTTDGRSDGYRWCATTANYDRDKLFGFCPTRADSTVMGGNSAGELCVFPFTFLGKEYSTCTSEGRGDGRLWCATTSNFDSDKKWGFCPDQGYSLFLVAAHEFGHALGLDHSSVPEALMYPMYRFTEGPPLHKDDVNGIRHLYGPRPEPEPRPPTTTTPQPTAPPTVCPTGPPTVHPSERPTAGPTGPPSAGPTGPPTAGPSTATTVPLSPVDDACNVNIFDAIAEIGNQLYLFKDGKYWRFSEGRGSRPQGPFLIADKWPALPRKLDSVFEERLSKKLFFFSGRQVWVYTGASVLGPRRLDKLGLGADVAQVTGALRSGRGKMLLFSGRRLWRFDVKAQMVDPRSASEVDRMFPGVPLDTHDVFQYREKAYFCQDRFYWRVSSRSELNQVDQVGYVTYDILQCPED
Turning to B1, the Kd at RSV F protein (DS-Cav1) worked out at 0.146 µM; with TGM2, 1.98 µM.
